One molecule from patent publication US10105442B2, “Treatment of diabetes type 1 using GLP-1 and anti-IL-21” (Novo Nordisk A/S, priority 2014, dated 2018) can be followed below.

Experiment [1] concerns recent-onset NOD mouse model. Kind of experiment: Liraglutide in combination with Anti-IL-21 in the NOD model, confirmation study (Example 4). It counts as in vivo. As to the method:
The recent-onset NOD mouse model was used. Mice were screened twice weekly and diabetes onset was defined as 2 consecutive blood glucose values of >250 mg/dL. Mice were enrolled into the experiment starting at 11 weeks of age and continued to be enrolled through 26 weeks of age. Dosing was weight based.
Blood glucose was measured by using a blood glucose meter (Bayer Contour USB) with the corresponding blood glucose strips. Mice with a blood glucose level>250 mg/dL on two consecutive days were considered diabetic. […] If the measurement was again >250 mg/dL, the animal was recorded as diabetic, enrolled into a treatment group, and was monitored further until it reached two consecutive readings of >600 mg/dL. At this time the mouse was sacrificed. Mice were also sacrificed before they reached a blood glucose value of >600 mg/dL if their overall condition was deteriorating, as determined by weight and/or overall appearance.
Anti-IL-21 was administered i.p. five times twice weekly starting immediately after inclusion of mice, i.e. from Day 0. […] Mouse surrogate anti-IL-21 is an mIgG1/kappa isotype with the VL amino acid sequence: […] […] […] (SEQ ID NO:26), and the VH amino acid sequence: […] […] […] (SEQ ID NO:27). […] Before use, anti-IL-21 was diluted in buffer (20 mM phosphate, 150 mM NaCl, pH=7.4). Aliquots of anti-IL-21 for injection into the animals were only thawed once.

For experiment [2], the system named is pancreatic tissue (islets, insulitis) of NOD mice. Kind of experiment: Histological examination of pancreatic tissue of NOD mice (H&E, CD8/CD4 and insulin staining). It counts as in vivo, mouse. As to the method: Histological examination: The histological analyses were performed on pancreatic tissue from a subset of mice from each group. Sections were stained with Hematoxylin and eosin (H&E) to assess insulitis and immunofluorescent staining with either CD8 and insulin or CD4 and insulin to assess insulitis and also characterize cell types within infiltrates.

A further experiment deals with T1, mIL-21 (Mus musculus, UniProt Q9ES17).
T1 construct: purchased
Kind of experiment: Inhibition of IL-21-driven B cell proliferation (Assay IV). The conditions noted are these: mouse B cells stimulated with anti-IgM, anti-CD40 and rmIL-21, 72 h, 3H-thymidine incorporation. It counts as cell-based. As to the method: Assay (IV): Inhibition of IL-21-Driven B Cell Proliferation.
As a functionality test, anti-mIL-21 is tested for its ability to neutralize mIL-21-driven B cell proliferation. Equivalent assays may be performed for testing of anti-hIL-21 antibodies, such as Example 10 of WO2013/164021 that utilizes PBMC's isolated from healthy human volunteers. Further information on ability to inhibit B-cell maturation may be obtained as described in Example 6 and 12 of WO2012/098113.
Mouse B cells are purified from spleens harvested from 6-8 weeks old wild-type C57BL/6 mice. Single cell splenocytes are prepared by forcing the organ through a 70 μm cell strainer into PBS. B cells were purified by anti-B220 positive selection by magnetic beads, using magnetic beads and an AutoMACS cell separator (Miltenyi Biotec) according to manufacturer's protocol.
Cells are stimulated in vitro with: a) soluble anti-IgM (1 μg/mL), b) soluble anti-CD40 (1 μg/mL) and c) mIL-21 (25, 50, 100 ng/mL). 10^5 purified B cells were added per well in a 96-well-plate and stimulated for 72 h at 37° C. with soluble IgM (1 μg/mL), soluble anti-CD40 IgM (1 μg/mL) and rmIL-21 (100 ng/mL) in the presence of an anti-IL-21 antibody or an isotype control antibody. For the last 18 h of incubation 3H-thymidine is added to each well and thymidine-incorporation (proliferation) was measured on a Top Counter liquid scintilator (Perkin Elmer)

For a further experiment, the target named is murine IL-21 (Mus musculus, UniProt Q9ES17). Kind of experiment: Inhibition of IL-21 mediated STAT-3 phosphorylation in BaF3/KZ134/hIL-21R cells (Assay III). It counts as cell-based. The conditions noted are these: selected antibody clone. On the procedure: Assay (III): Inhibition of IL-21 Mediated STAT-3 Phosphorylation.
The ability of anti-IL-21 antibodies to neutralize IL-21 can be measured in a cell based assay using phosphorylation of STAT3 as read-out. BaF3 cells transfected with IL-21 receptor (IL-21R) are used and as IL-21 induces STAT3 phosphorylation reduction hereof by an anti-IL-21 antibody reflects the IL-21 neutralization activity.
Reduction in murine IL-21 activity in the presence of antibody containing supernatant was determined by measuring the level of STAT3-phosphorylation following ligand-receptor interaction in BaF3/KZ134/hIL-21R cells.
Relative neutralization activity was determined based on the percentage decrease in phosphorylated-STAT3 levels relative to control cells incubated with ligand alone. Baf3/KZ134/hIL-21R cells are plated in 96-well round-bottom tissue culture plates at a density of 50,000 cells/well. Murine IL-21 was pre-incubated with the supernatant from each tested well before transfer to the plated cells. The reactions were stopped and cells lyzed according to the manufacturer's instructions, (BIO-RAD Laboratories). Supernatants were collected, mixed with assay buffer and stored. […] The level of phosphorylated-STAT3 was determined on an array reader (BIO-PLEX, BIO-RAD Laboratories) according to the manufacturer's instructions. […]

B1: Anti-IL-21: Mouse surrogate anti-IL-21 antibody, mIgG1/kappa isotype, VL SEQ ID NO:26 and VH SEQ ID NO:27, raised against recombinant mouse IL-21 (antibody, V domains shown)
VH: MNFGPSLIFLVLILKGVQCEVQLVESGGGLVKPGGSLKLSCAASGFTFNRYSMSWVRQSPEKRLEWVAEISVGGSYTQYVDIVTGRFTISRDNAKNTLYLEMSSLRSEDTAMYYCARLYYSGSGDSYYYAMDYWGQGTSVTVSS
VL: MDFQVQIFSFLLISASVILSRGQTVLIQSPAIMSASPGEKVTMTCSASSSVSYMHWYQQKSGTSPKRWIYDTSKLASGVPARFSGSGSGTSYSLTISSMEAEDAATYYCQQWNSNPPTFGGGTKLEMK
With B1, the “Survival through 70 days post onset of hyperglycaemia” value in experiment [1] (Example 4) was determined as 75%. Further, in experiment [1] (Example 4, first 35 days post disease onset), the “Mice with established hyperglycaemia cured / reversed” value is on record as 75%. In experiment [2] (subset of mice from each group), the “Cellular infiltration of pancreas (in words)” value is listed as “decreased extent of infiltration”. Also, the “Insulitis (in words)” value in experiment [2] (surviving mice) is on record as “reduced”. In addition, the “Inhibition of mIL-21-driven B-cell proliferation (in words)” value with mIL-21 is “capable of inhibiting B-cell proliferation in a concentration dependent manner”. For the same molecule, in the experiment with murine IL-21, the “Neutralizing activity in STAT3 phosphorylation assay (in words)” value is “strong neutralizing activity”.
